From patent US20080050363A1 (published 2008)
Ends that are not written are not given here.

B1: dynorphin A1-8 (peptide, UniProt P01213 207-214, looked up)
peptide: YGGFLRRI
notes: domain: Dynorphin A1-8; 1-8 counts on dynorphin A, not on the precursor
B2: [Met^5]-enkephalin (opioid growth factor) (peptide, UniProt P01210 100-104, looked up)
peptide: YGGFM
modifications: also: [3H] label on radioligand form
notes: domain: [Met^5]-enkephalin; only the pentapeptide stood in the assay; also called OGF; [^3H]-[Met^5]-enkephalin
B3: Leucine enkephalin (peptide, UniProt P01210 230-234, looked up)
peptide: YGGFL
notes: domain: Leucine enkephalin

How the values were obtained:
[1] = target: human OGF receptor (OGFr), native, in nuclear preparations of human cells and tissues (human) (UniProt Q9NZT2); test: competition with [3H]-[Met5]-enkephalin, PANC-1 nuclear homogenates; IC50/Kd
[2] = target: T1, human OGF receptor (OGFr), native, in nuclear preparations of human cells and tissues (human, UniProt Q9NZT2 1-662, limits assumed); test: as above
T1 construct: Native receptor in nuclear homogenates (placenta, PANC-1, MIA PaCa-2, Capan-1, BxPC-3, pancreatic tissue, head and neck tissue); also called zeta opioid receptor; receptor for OGF
T1 chain: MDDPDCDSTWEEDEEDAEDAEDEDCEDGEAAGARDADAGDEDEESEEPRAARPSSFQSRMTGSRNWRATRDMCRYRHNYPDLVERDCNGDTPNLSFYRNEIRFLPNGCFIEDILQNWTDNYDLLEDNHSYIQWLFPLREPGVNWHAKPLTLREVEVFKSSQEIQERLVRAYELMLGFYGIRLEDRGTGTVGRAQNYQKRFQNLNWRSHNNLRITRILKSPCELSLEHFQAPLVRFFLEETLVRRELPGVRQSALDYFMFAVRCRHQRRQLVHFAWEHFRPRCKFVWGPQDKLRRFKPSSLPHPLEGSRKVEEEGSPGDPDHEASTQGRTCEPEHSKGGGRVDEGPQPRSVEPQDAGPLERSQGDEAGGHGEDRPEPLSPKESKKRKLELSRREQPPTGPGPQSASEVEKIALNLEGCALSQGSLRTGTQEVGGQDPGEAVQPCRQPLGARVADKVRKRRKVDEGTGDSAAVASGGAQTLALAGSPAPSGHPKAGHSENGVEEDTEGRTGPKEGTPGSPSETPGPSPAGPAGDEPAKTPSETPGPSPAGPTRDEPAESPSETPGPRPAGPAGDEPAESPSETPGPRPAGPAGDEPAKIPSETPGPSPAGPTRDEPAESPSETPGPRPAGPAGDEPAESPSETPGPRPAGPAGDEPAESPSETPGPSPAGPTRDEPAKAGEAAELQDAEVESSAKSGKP
Method: Each concentration was run in triplicate and every compound was tested twice.
Competition experiments using 1 or 2 nM [³H]

[3] = target: T1, human OGF receptor (OGFr), native, in …; test: radioligand saturation binding, nuclear-enriched fraction of human placenta
[4] = target: T2, 12-GST fusion protein (GST fused to rat OGFr, all 580 amino acids, from clone #12) (rat, UniProt Q9QXY4 1-580); test: [3H]-[Met5]-enkephalin saturation binding, filter assay, purified 12-GST fusion protein, 22 C
T2 construct: The order GST then OGFr follows the pGEX-3X vector; also called purified fusion protein from the rat OGFr cDNA clone #12; not shown: glutathione-S-transferase (GST) of the pGEX-3X expression vector
T2 sequence: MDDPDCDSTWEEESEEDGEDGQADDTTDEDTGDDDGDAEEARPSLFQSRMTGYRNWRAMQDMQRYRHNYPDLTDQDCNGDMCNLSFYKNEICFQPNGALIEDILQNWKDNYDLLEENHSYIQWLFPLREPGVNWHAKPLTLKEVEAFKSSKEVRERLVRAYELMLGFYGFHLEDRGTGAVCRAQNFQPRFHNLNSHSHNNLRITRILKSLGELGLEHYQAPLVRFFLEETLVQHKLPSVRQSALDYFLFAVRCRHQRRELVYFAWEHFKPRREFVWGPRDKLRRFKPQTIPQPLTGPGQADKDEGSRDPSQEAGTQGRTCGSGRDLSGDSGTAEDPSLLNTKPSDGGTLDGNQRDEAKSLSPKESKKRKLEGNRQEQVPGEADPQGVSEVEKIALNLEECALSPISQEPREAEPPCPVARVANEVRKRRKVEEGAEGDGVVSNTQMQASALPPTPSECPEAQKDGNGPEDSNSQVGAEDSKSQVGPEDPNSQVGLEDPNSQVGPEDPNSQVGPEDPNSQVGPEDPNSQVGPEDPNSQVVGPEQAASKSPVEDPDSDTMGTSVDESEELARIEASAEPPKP
Method: Fusion proteins (80-120 ng/tube) were incubated for 30 min with shaking at 22° C. Non-specific binding was measured in the presence of unlabeled [Met⁵]-enkephalin. In some assays, NTX (10⁻³ M) was added to the reaction mixture to monitor opioid antagonist blockade of binding. Binding was terminated by filtering homogenates through Whatman GF/B filters. Saturation isotherms were plotted using GraphPad Prism software (GraphPad Software Inc., San Diego, Calif.).

| Molecule | IC50 [1] | IC50 [2] | other results |
| --- | --- | --- | --- |
| [D-Ala^2, N-Me-Phe^4, Gly^5-ol]-enkephalin (peptide) | > 100 µM | – | – |
| ICI-174, 568 (peptide) | > 100 µM | – | – |
| [D-Pen^2, Pen^5]-enkephalin (peptide) | > 100 µM | – | – |
| B1 | – | > 100 µM | – |
| B2 | – | – | Kd [3]: 0.0123 µM; Kd [4]: 0.0028 µM |
| B3 | – | > 100 µM | – |
